{"source": "the DeepSol protein solubility set"}
{"assay": "soluble on expression in E. coli; label from the status in PepcDB or PDB records"}
{"sequence": "MPVLSIISCRMFEDELAHIISSDKEMKQLIVVENKDSFGLLRKLRSDNCLPRTSPLDRVPFLLGNGHGSGFMTISKPLLILPFFRKIHEKMKIKAAQELTVVVNLLKLGLHDDIEILRSEVYKNIKEMTSFSDGILLFYCSCGGAFENLEENCLEFDCPLYWFKDGNEEVVVDCISAAIGGNAAYDELMYTCRGTGALYFTSMWASSWKEMREERKKSRNFNENYLKDPRYSRVVKLDTGLSYDPDFHKNVRDFARTFDMEIIEVKGSVELAEKSYRTAKKGVVQHTLKLEHHHHHH", "soluble on expression in E. coli": "not soluble"}
{"sequence": "MKHHHHHHPMVKEYKTITQIAGPLIFVEKTEPVGYNEIVNIKMGDGTVRRGQVLDSSADIVVVQVFEGTGGLDKDCGVIFTGETLKLPASVDLLGRILSGSGEPRDGGPRIVPDQLLDINGAAMNPYARLPPKDFIQTGISTIDGTNTLVRGQKLPIFSASGLPHNEIALQIARQASVPGSESAFAVVFAAMGITNEEAQYFMSDFEKTGALERAVVFLNLADDPAVERIVTPRMALTAAEYLAYEHGMHVLVILTDITNYAEALRQMGAARNEVPGRRGYPGYMYTDLATLYERAGIVKGAKGSVTQIPILSMPGDDITHPIPDLSGYITEGQIVVARELHRKGIYPPINVLPSLSRLMNSGIGAGKTREDHKAVSDQMYAGYAEGRDLRGLVAIVGKEALSERDTKFLEFADLFEDKFVRQGWNENRTIEDTLEIGWQILTHLPENQLGRIDNKYIQKYHPAHRKAK", "soluble on expression in E. coli": "soluble"}
{"sequence": "MSQANRTNGLVDYKELETNILSSIQEGKPLTGRDGALTPFIKRLLEASLEGEIESHMSAKSEENNRRNGRNAKTLRTSAGSFELLTPRDREGNFEPQIVKKRQTSLHPELEAKVLSTYASGMGYRDIASHVEEIYDHKISAAEISSITDKLLPIINEWRSRPLQSVYPIVFMDGMFFKVKEDGHCVSKCMYNILGINQNGRKEVLGFYLAESEGATFWLGVLNDLKERGVEDILIACIDGLKSFPTAINSVFPSAEVQLCIVHQIRNSLKYVSSKDVKVFMNDLKKIYRASSKEIAENYLLELEEKWGEKYPLVIKSWQNNWENLSSYFKYSGPVRKLIYTTNPIEGLHRQIRKFTKTKGSFTSTNALYKQVYCAIKKVEQKWIMALPNWALTMSQLDIFFPGRLKIELN", "soluble on expression in E. coli": "soluble"}
{"sequence": "MGFFSGQFSNVVEWEEFREDMIFWKWHNREIKRGSKLIIRPGQDAIFLFNGRIEGIFKDEGDYDIESQIIPFLSTLQGFKFGFNSGMRAEVLFVNTKEFTAKWGTKSAINIPTPQLPGGIPIRANGTFTFKVNDYVKLIDRIAGVKDSFLVEDVRLRIMALLDQLMMKWIVQEGRDMFNLQSNSFAIADGLKTDLDMQIYDMGITVSQLTIMSFTYPEEIQQMIAKAASHTMIGDMGRYQQVSVLDGIAGGKGQGGSAAADMAGMAIGMQMANEMIKGVTSPQREQTQGRGSHAPQGGSEPGLIKPNFCPNCGQKTDGANFCSNCGQKLVLEHHHHHH", "soluble on expression in E. coli": "soluble"}
{"sequence": "MPAKVLINGYGSIGKRVADAVSMQDDMEVIGVTKTKPDFEARLAVEKGYKLFVAIPDNERVKLFEDAGIPVEGTILDIIEDADIVVDGAPKKIGKQNLENIYKPHKVKAILQGGEKAKDVEDNFNALWSYNRCYGKDYVRVVSCNTTGLCRILYAINSIADIKKARIVLVRRAADPNDDKTGPVNAITPNPVTVPSHHGPDVVSVVPEFEGKILTSAVIVPTTLMHMHTLMVEVDGDVSRDDILEAIKKTPRIITVRAEDGFSSTAKIIEYGRDLGRLRYDINELVVWEESINVLENEIFLMQAVHQESIVIPENIDCIRAMLQMEEDNFKSIEKTNKAMGIQ", "soluble on expression in E. coli": "soluble"}
{"sequence": "MIFYFSGTGNSKWIANQLSKEQQEDLFFIPDAWKNDTWEFSLREDEKIGFVFPVYSWAPPVIVQEFIRKLVLKGYQQQYLFFVCSCGDDTGLTRQVMEKALAARGWRCNAGFSVIMPNNYVLFLGFDVDSKELEKKKLAEAVPALEKVSRLITGRETVFACKEGSLPFIKTRIINPLFVRYQMSPKPFHATSECIGCKRCEKSCPVGNITMKERRPVWGKNCTACLACYHVCPQHAVQYGKKTKGKGHYFNPDSAYLEHHHHHH", "soluble on expression in E. coli": "soluble"}
{"sequence": "MAHHHHHHMSCITSPPQPSSPPRMDAHTCVCIGITMPPAARQRKGARRSLTLPLLSLPWRKIRDQEGGAVCAGPVQQLPWKVRAEAALQSRPSPPAIRRRYLALSLPMRTSAAAAVAAAAHAGVRALHTATGVAGNSCGASPRATVALPPHSGLTLPSFTRCGASSAAFITRAHSVGCCGCAAAVKQHRLYSSHGCSSNSSGSFADSSRPYVPGQAVQETYPIIQLPARSLWCRQYALDARRVAQGEYAGLISQVREARHYYQYPSMSAPQTGWNVQMFTLFDNSVFINPVNLDEEVWRAEAARQGMSWVAFEEEKMRELRAEGLTGFAWEPCASSGFLLHYIERPLTVRMRALDEHGKPFTVTLDKMRARMALHELDHLQGVLFTRRVVDTDHVVPMEGFVTMSDWSDDYPSLEARSTFLYTIFTPPYHFVSDAVPDGNLLDRKFEDGIYPGCEQDRQQRIELTAMEEIQRNVWRKEKAKRKEGGQQCGRGDVTAVEDDDGSGAAGAR", "soluble on expression in E. coli": "not soluble"}
{"sequence": "KFSPEFGIFMNIGASKIFTKTEVDQNEYSYLVDFRTIKGDIFLDFEAIFQLGVKNNINNNIVTGLTSLLEIGYSPYIISTKYEGESDSIYYIFTDRVILYSLVLGALEKIVFNNFSIGIGAGVLFPISGFAASNHPRNIISVMPSENLSIISPYNSKLDYAYIKKLFKVPVAPYIKITAEYAFKPYKIDNAEMDFVLGAYLSYNFGMQYDVSVLNSNIPKQGDNGLIIPGISSKDMFYKYDYSNLDFGVTFGVSFRALE", "soluble on expression in E. coli": "not soluble"}
{"sequence": "AVNGKGMNPDYKAYLMAPLKKIPEVTNWETFENDLRWAKQNGFYAITVDFWWGDMEKNGDQQFDFSYAQRFAQSVKNAGMKMIPIISTHQCGGNVGDDCNVPIPSWVWNQKSDDSLYFKSETGTVNKETLNPLASDVIRKEYGELYTAFAAAMKPYKDVIAKIFLSGGPAGELRYPSYTTSDGTGYPSRGKFQAYTEFAKSKFRLWVLNKYGSLNEVNKAWGTKLISELAILPPSDGEQFLMNGYLSMYGKDYLEWYQGILENHTKLIGELAHNAFDTTFQVPIGAKIAGVHWQYNNPTIPHGAEKPAGYNDYSHLLDAFKSAKLDVTFTCLEMTDKGSYPEYSMPKTLVQNIATLANEKGIVLNGENALSIGNEEEYKRVAEMAFNYNFAGFTLLRYQDVMYNNSLMGKFKDLLGVTPVMQTIVVKNVPTTIGDTVYITGNRAELGSWDTKQYPIQLYYDSHSNDWRGNVVLPAERNIEFKAFIKSKDGTVKSWQTIQQSWNPVPLKTTSHTSSW", "soluble on expression in E. coli": "soluble"}
{"sequence": "MQQNTSLYDSLNVTAAASTSEIKKAYRNAALKYHPDKNNHTEESKRKFQEICQAYEILKDNRLRALYDQYGTTDEVLIQEQQAQAQRQQAGPFSSSSNFDTEAMSFPDLSPGDLFAQFFNSSATPSSNGSKSSFNFSFNNSSTPSFSFVNGSGVNNLYSSSAKYNSNDEDHHLDRGPDIKHNLKCTLKELYMGKTAKLGLNRTRICSVCDGHGGLKKCTCKTCKGQGIQTQTRRMGPLVQSWSQTCADCGGAGVFVKNKDICQQCQGLGFIKERKILQVTVQPGSCHNQLIVLTGEGDEVISTKGGGHEKVIPGDVVITILRLKDPNFQVINYSNLICKKCKIDFMTSLCGGVVYIEGHPSGKLIKLDIIPGEILKPGCFKTVEDMGMPKFINGVRSGFGHLYVKFDVTYPERLEPENAKKIQNILANDKYIKAERSTMETADSDCYCDLEKSYDSVEEHVLSSFEAPNLNNEVIEDDDLGDLINERDSRKRNNRRFDESNINNNNETKRNKYSSPVSGFYDHDINGY", "soluble on expression in E. coli": "not soluble"}
{"sequence": "GSHMSLDNKPIMRVASIDIGSYSVRLTIAQIKDGKLSIILERGRITSLGTKVKETGRLQEDRIEETIQVLKEYKKLIDEFKVERVKAVATEAIRRAKNAEEFLERVKREVGLVVEVITPEQEGRYAYLAVAYSLKPEGEVCVVDQGGGSTEYVFGKGYKVREVISLPIGIVNLTETFFKQDPPTEEEVKRFFEFLEKELSKVKKPVDTIVGLGGTITTLAALEYNVYPYDPQKVHGKVLTYGQIKKWFDTFKEIPSEERSKRFRQVEDRRAKVILAGIGIFLKTLEIFEKDCLIVSDWGLREGVLVSEVLKENHS", "soluble on expression in E. coli": "soluble"}
{"sequence": "MSLTQVHFTLKSEEIQSIIEYSVKDDVSKNILTTVFNQLMENQRTEYIQAKEYERTENRQSQRNGYYERSFTTRVGTLELKVPRTRDGHFSPTVFERYQRNEKALMASMLEMYVSGVSTRKVSKIVEELCGKSVSKSFVSSLTEQLEPMVNEWQNRLLSEKNYPYLMTDVLYIKVREENRVLSKSCHIAIGITKDGDREIIGFMIQSGESEETWTTFFEYLKERGLQGTELVISDAHKGLVSAIRKSFTNVSWQRCQVHFLRNIFTTIPKKNSKSFREAVKGIFKFTDINLAREAKNRLIHDYIDQPKYSKACASLDDGFEDAFQYTVQGNSHNRLKSTNLIERLNQEVRRREKIIRIFPNQTSANRLIGAVLMDLHDEWIYSSRKYINFDKEGHHHHHH", "soluble on expression in E. coli": "soluble"}
{"sequence": "EAEERQRNMINKTHVGLLLIDGQGRIEEINPMAKRYFSLSDSMVRQLQAWSLFDTGNPNATVPLLLKNLTEHQELADITNVETVARRSDGSLFPVLFSLIAVSWKDRRHYLVTLIDIS", "soluble on expression in E. coli": "not soluble"}
{"sequence": "MVSIMNKNELITEILKNEVVKALGCTEVGLIGYTVAKAKPEDLYSIKEIKLILDKGTFKNAFSVGVPNTNKFGILPAVVGGLLGREENKLEVFKDIKYDEKLEEFIENKLKIEVIDSDVYCKVIIKANKVYEAETKGSHSGKSLSDDLKNAYKSLTLKDFIDYIEDIPEEVIKIIKETIETNKNLSTPEVPEDFISLDLKDEILNHMLKKTVSAVYNRMIGINKPAMAIAGSGNMGLTATLPIIAYDEIKGHDEEKLTKSITLSALTTIYSAYHSSYISAMCGCVNRGGIGAVSGLSYYIFGFDRIEESIKSFTANLPGIVCDGGKIGCALKIASGVFAIYLSLFSKVPYTNGIVGKDFKECIENIGKIGKAMKPVDDEIIEILKNKK", "soluble on expression in E. coli": "soluble"}
{"sequence": "MEFSMNATVEQLAPVEQQATTDWVVAALYQFKEVADAADLQQRLLDLVKTINLCGTLIVASEGINGTVAGDRHAIDTIREFLLNEGFHAMEYKESHSAEKPFRKMKIKLKQEIVTLGVEVKPRDLVGHYLDPKEWNELISRDDVILVDTRNDYEYKAGTFKGAIDPKTETFREFPDYVKQNLEQHKDKKIAMFCTGGIRCEKSTSLLLQEGFNEVYHLKGGILKYLEETPAEESLWEGECFVFDGRTAVTHGVEEGQNVKCHACGWPLTPEEVALPSYEHGVSCVYCIEKTTEKQKEGFRMRQSQIAAAKRKRLLEHHHHHH", "soluble on expression in E. coli": "soluble"}
{"sequence": "SNAMIVGIGIDIIELNRIEKMLDGKLKFMERILTENERNVAKGLKGSRLTEFVAGRFAAKEAYSKAVGTGIGKEVSFLDIEVRNDDRGKPILITSTEHIVHLSISHSKEFAVAQVVLESSSS", "soluble on expression in E. coli": "soluble"}
{"sequence": "MNYAFVVQARLGSTRLPGKILKPFYGNQSILDLMVHKLSAISNIPVIIATTNSVINEPIEKKALALGVKCFRGEENDVLKRFIDVAEYFDIQGIFRICSDNPFLDVHAARQLVEIAMKSCNDYISFDIDGTPSIKTHFGFWGEFVTLDALKRVIGFTDDLLYREHVTNYIYSHPELFNIQWISGSPVVSKHHNIRLTIDTLEDFSVAQRIYRDLQEKRVEISIEVIVDYVRRHAEYIQLMKQQIKKNSKLEHHHHHH", "soluble on expression in E. coli": "soluble"}
{"sequence": "MGSDKIHHHHHHMIWKLSERKDWNSLEQQFGWVRDMNQVPQHTVHHAEGSVAVHTRMVLEALLRQPAYPMLPEQEREILWAAALLHDVEKRSTSVDEGNGQVTSKNHAKRGETTVRTLLYRDIPAPFNIREHIASLVRHHGLPIWLMEREDPLKRACEASLRLDTSLLKQLTVADICGRISTDKEVLLEATEFFEMFCREQQCWGKAREFANGTARFHYFHTPRSYIDYVPHDDFKCGVTLLVGLPGMGKDYYIESRCADMPVVSLDAIRRKHKFSPTDKAANGWVAQTAKEQARIYLRKGQDFIWNATNVSRQRRTQLIDLFITYGARVKIVYIEKPYSVWRRQNSTREYEVPETVLDKMLGRLEVPQLTEAHEVVYVVEE", "soluble on expression in E. coli": "not soluble"}
